According to publication PMC8522838 (2021):

B1: SmBiT-MYC 1-190 [human] / TRRAP 2033-2283-LgBiT [not stated] (parent complex)
chain 1: MPLNVSFTNRNYDLDYDSVQPYFYCDEEENFYQQQQQSELQPPAPSEDIWKKFELLPTPPLSPSRRSGLCSPSYVAVTPFSLRGDNDGGGGSFSTADQLEMVTELLGGDMVNQSFICDPDDETFIKNIIIQDCMWSGFSAAAKLVSEKLASYQAARKDSGSPNPARGHSVCSTSSLYLQDLSAAASECID
chain 2: NSSGEGVNSVSSSIKRGLSVDSAQEVKRFRTATGAISAVFGRSQSLPGADSLLAKPIDKQHTDTVVNFLIRVACQVNDNTNTAGSPGEVLSRRCVNLLKTALRPDMWPKSELKLQWFDKLLMTVEQPNQVNYGNICTGLEVLSFLLTVLQSPAILSSFKPLQRGIAACMTCGNTKVLRAVHSLLSRLMSIFPTEPSTSSVASKYEELECLYAAVGKVIYEGLTNYEKATNANPSQLFGTLMILKSACSNNP

Variants of: B1
Test: luminescence complementation (NanoBiT) in transfected cells; normalized for MYC expression level; parent: 100; read off a plot
In the case of chain 1 T58I, the percent of parent is reported as ~102 % RLU to WT. chain 1 S136A was tested, and the percent of parent was ~77 % RLU to WT. In the case of chain 1 W135A, the percent of parent is reported as ~35 % RLU to WT. For chain 1 F138A, the percent of parent was ~24 % RLU to WT. In the case of chain 1 M134A, the percent of parent is reported as ~43 % RLU to WT.
